Results reported in patent US11155586B2, “Cystine knot scaffold platform” (Genentech, Inc., priority 2015, dated 2021).
≈ marks a conversion by molar mass, not a printed value. Positions of bridges follow the written chain, without caps; N, C: chain ends. Residues, ends and D or L forms follow the SMILES beside them.

How the values were obtained:
[1] = test system: mouse or rat VEGF-A; details: cited from earlier work
[2] = biological target: T1, hVEGF-A (8-109) (Homo sapiens, UniProt P15692); assay: Phage competition ELISA; type: binding; details: phage competition ELISA, FIG. 15
T1 sequence (P15692 214-315): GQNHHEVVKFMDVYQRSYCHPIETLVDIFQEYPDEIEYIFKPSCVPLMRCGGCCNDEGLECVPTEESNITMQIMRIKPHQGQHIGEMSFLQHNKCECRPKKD

[3] = biological target: T2, LRP6 E1E2 (Homo sapiens, UniProt O75581); assay: Phage selection / spot phage ELISA against LRP6 E1E2; type: binding
T2 sequence (O75581 20-630 limits assumed): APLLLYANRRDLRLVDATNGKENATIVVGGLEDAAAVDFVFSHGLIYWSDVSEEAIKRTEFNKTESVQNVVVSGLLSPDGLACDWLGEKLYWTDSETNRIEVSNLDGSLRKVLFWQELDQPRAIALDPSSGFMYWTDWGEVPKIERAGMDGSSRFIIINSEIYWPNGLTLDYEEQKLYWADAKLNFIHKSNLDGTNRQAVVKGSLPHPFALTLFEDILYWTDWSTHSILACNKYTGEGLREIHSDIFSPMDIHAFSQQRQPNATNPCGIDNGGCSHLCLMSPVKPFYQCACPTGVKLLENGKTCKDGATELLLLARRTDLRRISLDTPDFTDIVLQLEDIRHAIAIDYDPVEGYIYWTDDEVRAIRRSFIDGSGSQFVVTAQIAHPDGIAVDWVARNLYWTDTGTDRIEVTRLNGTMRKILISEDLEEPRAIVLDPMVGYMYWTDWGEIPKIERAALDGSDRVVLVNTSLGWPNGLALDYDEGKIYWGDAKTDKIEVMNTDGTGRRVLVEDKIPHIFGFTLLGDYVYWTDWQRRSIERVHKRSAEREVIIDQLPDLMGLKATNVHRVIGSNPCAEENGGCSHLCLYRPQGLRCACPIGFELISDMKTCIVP
Method: After four rounds of binding selection, individual phage clones were picked and inoculated into 450 μl 2YT media containing 50 µg/ml Carbenecillin and M13-KO7 helper phage in 96-well blocks, which were grown at 37° C. overnight. The supernatant was analyzed with spot phage ELISA as follows: hVEGF(8-109) or BSA were coated on 384-well MAXISORP™ immunoplates and phage supernatant diluted (1:3) with PBT buffer was added to the wells. The plates were washed and bound phage was detected with anti-M13-HRP followed by TMB substrate. In these assays, phage binding to BSA alone was tested in parallel to assess background binding. Clones whose binding signals for hVEGF-A (8-109) were more than 3 times higher than to BSA (background) were considered positive. Positive clones were subjected to DNA sequence analysis.
The naïve EETI-II libraries described in Example 2A were cycled through rounds of selection against LRP6 E1E2 protein. Twenty-two unique clones were identified which bound LRP6 E1E2 (Table 46). These initial hits contained variations in amino acid content within loops 1 and 5. […] The newly evolved variants recapitulated a motif which occurs in natural ligands.

[4] = biological target: T1, hVEGF-A (8-109); assay: SPR binding assay (BIACORE 3000, 37° C.); details: SPR affinity (Table 37) and cellular IC50 (Table 38), vs variant without F8Y
Method: Depending on the format of the assay either a streptavidin sensor (SA) or a dextran-coated (CM5) sensor was utilized as described below.
For use with the SA sensor, VEGF-A was first biotinylated (no more than 2 biotin/VEGF-A) by incubating the protein with EZ-link NHS-PEG4-Biotin (Pierce) in a 1:1.5 molar ratio respectively, in PBS for 2 hours on ice. Reaction was then quenched by addition of 10 molar excess of Glycine pH 8.0 and the sample was buffer exchanged into PBS using an Amicon 0.5 mL 3000 MWCO ultra-centrifugal filters (EMD Millipore). The biotinylation state of the protein was verified by LC-MS analysis. Biotinylated VEGF-A was then captured on the surface until a resonance unit (RU) signal of about ˜400. For immobilization of VEGF-A on CM5 sensor, the surface was first activated with a mixture of N-ethyl-N′-(3-dimethylaminopropyl)carbodiimide hydrochloride and N-hydroxysuccinimide (EDC/NHS) according to the supplier instructions. VEGF-A was then diluted into coupling buffer (0.1 M Acetate Buffer, pH 5.0) and injected until the signal reached about ˜400 RU followed by a wash with 1 M ethanolamine pH 8.0 to quench remaining activated sites.
Following the capture step, a series of the peptide concentrations were prepared in HBS-EP buffer with matching DMSO concentrations to 0.1% and injected at a flow rate of […]. The resulting sensorgrams were then analyzed using a 1:1 binding model to obtain kinetic data and affinities using Scrubber 2.0 (BioLogic Software).

[5] = Solubility; type: physicochemical; details: vs variant without F8Y; read-out: improvement of solubility by F8Y substitution
Source text: In variants derived from VEGF_CKP9.54 (such as the variants in Table 35) the amino acid at position 8 is Phe. Therefore, we sought to mutate Phe8 to Tyr I in some of the variants in Table 35, with the goal of improving affinity and/or solubility of the resulting F8Y variant. […] See Table 37, in which the binding affinities of certain variants (as determined by surface plasmon resonance) are compared, and Table 38 in which the potencies of certain variants (as determined by cellular IC50) are compared. […] VEGF_CKP9.54.90.67.F8Y was selected for further follow-up studies.

[6] = biological target: T3, hVEGF-A (Homo sapiens, UniProt P15692); assay: KDR-CHO VEGF assay to determine cellular IC50 (VEGF mediated Tyr phosphorylation of KDR); type: cell-based; details: Table 38, from cellular IC50
T3 sequence (P15692 207-395): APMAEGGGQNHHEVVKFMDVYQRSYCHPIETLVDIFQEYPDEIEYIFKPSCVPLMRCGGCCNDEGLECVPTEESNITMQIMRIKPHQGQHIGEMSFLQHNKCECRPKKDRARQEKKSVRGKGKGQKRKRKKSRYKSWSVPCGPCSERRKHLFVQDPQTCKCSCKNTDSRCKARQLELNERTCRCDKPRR
Method: KDR-CHO cells (CHO cells stably transfected with gD tagged-KDR) were grown in cell growth medium (DMEM/Ham's F-12, 10% diafiltered FBS (GIBCO catalog no. 26400), 25 mM HEPES, 2 mM L-GLUTAMAX™). For VEGF stimulation assay, 5×10^4 cells/well were plated in 100 μl of cell plating medium (DMEM/Ham's F-12, 0.2% BSA, 0.25% diafiltered FBS, 25 mM HEPES, 2 mM L-GLUTAMAX™) in 96-well tissue culture plate and incubated at 37° C. overnight. The medium was replaced with 100 I1 of serum-free cell stimulation medium (DMEM/Ham's F-12, 0.5% BSA, 25 mM HEPES) and cells were incubated at 37° C. for 2 hr. One hour before stimulation, the medium was replaced with 50 I1 of serum-free cell stimulation medium. Concurrently, VEGF (50 ng/ml for hVEGF, 100 ng/ml for mVEGF and rVEGF) was pre-incubated with titrated amount of CKP or anti-VEGF in 50 μl of serum-free cell stimulation medium at 37° C. for 1 hour and added to the cells. The cells were stimulated for 15 min at 37 C and the medium is removed. The cells were lysed with 130 I1 of ice-cold cell lysis buffer (150 mM NaCl, 50 mM HEPES, 0.5% Triton-X 100, HALT protease and phosphatase inhibitor cocktail (ThermoFisher Scientific, Inc. catalog no. 78444), 5 mM EDTA). VEGF mediated Tyr phosphorylation of KDR was determined by ELISA-based assay. Briefly, MAXISORP™ 96 well plates (ThermoFisher Scientific, Inc. catalog no. 439454) were coated with 100 I1 of anti-gD antibody diluted in PBS (1 μg/ml) at 4° C. overnight and washed three times with washing buffer (PBS, 0.05% TWEEN®20, pH 7.4). The plates were blocked with 300 I1 of blocking buffer (PBS, 0.5% BSA) at room temperature for 1 hour followed by washing three times with washing buffer. The above KDR-CHO cell lysate (100 μl) was added to each well and incubated at room temperature for 2 hours. The plates were washed four times with washing buffer followed by incubation with 100 I1 of 0.5 μg/ml biotin-conjugated anti-phosphotyrosine (clone 4G10, Millipore catalog no. 16-103) in blocking buffer at room temperature for 2 hours. After washing four times, the plates were incubated with 100 I1 of HRP-conjugated streptavidin in blocking buffer at room temperature for 30 min. After washing four times, the plates were developed with 100 I1 of TMB substrate (BD Biosciences) at room temperature for 20-30 min and stopped by addition of 50 μl of H2SO4 solution. The optical density of each well was determined using a microplate reader set to 450 nm.

## bevacizumab
[1]
  binding to mouse or rat VEGF-A: do not bind

## GCNIMLPFWGCGQSFECLAGCICQYYQSCGTR [9.54.1-36]
[2]
  improvement of binding affinity for hVEGF-A (8-109) compared to parent clone: approximately 10 fold

## GCNIMLPFWGCGQSFECLAGCICQYYQSCGLS [9.54.1-42]
[2]
  improvement of binding affinity for hVEGF-A (8-109) compared to parent clone: approximately 10 fold

## ranibizumab
[1]
  binding to mouse or rat VEGF-A: do not bind

## LRP6_CKP6 (GCRNSIKRCKQNSDCLAGCVCSVGHGCG)
[3]; LRP6 E1E2 vs BSA control
  S/N (signal to noise ratio as compared to BSA control): 37.36
[3]; binding signal against LRP6 E1E2
  ELISA: 3.10

## 9.54-28: C-terminal two-residue extension variant based on 9.54 (Table 39) (GCNIMLPFWGCKQDFDCLAGCICQYYQSCGFH)
[2]
  improvement of binding affinity for hVEGF-A (8-109) compared to parent clone: approximately 10 fold

## CC[C@H](C)[C@H](NC(=O)[C@@H]1CSSC[C@H](NC(=O)CN)C(=O)N[C@@H](CC(N)=O)C(=O)N[C@@H]([C@@H](C)CC)C(=O)N[C@@H](CCSC)C(=O)N[C@@H](CC(C)C)C(=O)N2CCC[C@H]2C(=O)N[C@@H](Cc2ccc(O)cc2)C(=O)N[C@@H](Cc2c[nH]c3ccccc23)C(=O)NCC(=O)N[C@H]2CSSC[C@H](NC(=O)[C@H](CCC(=O)O)NC(=O)[C@H](Cc3ccccc3)NC(=O)[C@H](CC(=O)O)NC(=O)[C@H](CCCNC(=N)N)NC(=O)CNC2=O)C(=O)N[C@@H](CCSC)C(=O)N[C@@H](CCC(=O)O)C(=O)N[C@@H](CCC(N)=O)C(=O)N1)C(=O)N[C@H]1CSSC[C@@H](C(=O)NCC(=O)O)NC(=O)[C@H](CO)NC(=O)[C@H](CCC(N)=O)NC(=O)[C@H](Cc2ccc(O)cc2)NC(=O)[C@H](Cc2ccc(O)cc2)NC(=O)[C@H](CCC(N)=O)NC1=O [VEGF_CKP9.54.90.67.F8Y]
[4]
  effect of F8Y mutation on affinity/potency: modest improvement
[5]
  solubility: ~2000 µg/mL (≈ 572 µM)

## GCNIMLPFWGCGQSFECLAGCICQYYQSCGIA [9.54.1-2]
[2]
  improvement of binding affinity for hVEGF-A (8-109) compared to parent clone: approximately 10 fold

## GCNIMLPFWGCGQSFECLAGCICQYYQSCGVH [9.54.1-90]
[2]
  improvement of binding affinity for hVEGF-A (8-109) compared to parent clone: approximately 10 fold

## GCNIMLPFWGCGQSFECLAGCICQYYQSCGGS [9.54.1-63]
[2]
  improvement of binding affinity for hVEGF-A (8-109) compared to parent clone: approximately 10 fold

## CC[C@H](C)[C@@H]1NC(=O)[C@H](CC(N)=O)NC(=O)[C@@H](N)CSSC[C@@H](C(=O)N[C@H](C(=O)N[C@H]2CSSC[C@@H](C(=O)O)NC(=O)[C@H](CO)NC(=O)[C@H](CCC(N)=O)NC(=O)[C@H](Cc3ccc(O)cc3)NC(=O)[C@H](Cc3ccc(O)cc3)NC(=O)[C@H](CCC(N)=O)NC2=O)C(C)C)NC(=O)CNC(=O)[C@H](C)NC(=O)[C@H](CC(C)C)NC(=O)[C@@H]2CSSC[C@H](NC(=O)CNC(=O)[C@H](Cc3c[nH]c4ccccc34)NC(=O)[C@H](Cc3ccc(O)cc3)NC(=O)[C@@H]3CCCN3C(=O)[C@H](CC(C)C)NC(=O)[C@H](CCSC)NC1=O)C(=O)NCC(=O)N[C@@H](CCCNC(=N)N)C(=O)N[C@@H](CC(=O)O)C(=O)N[C@@H](Cc1ccccc1)C(=O)N[C@@H](CCC(=O)O)C(=O)N2 [9.54.90.F7Y.Δ2G] (H-CNIMLPYWGCGRDFECLAGCVCQYYQSC-OH; disulfide 1-20, 10-16, 22-28; N-terminus and C-terminus assumed)
[6]
  FOLD IMPROVEMENT RELATIVE TO VARIANT 9.54.90: 0.44
